Results: patent US20060204957A1, “Mta1s, a steriod hormone receptor corepressor” (priority 2002, published 2006)

Biological target: Estrogen Receptor α (ER) (UniProt P03372)
Assay: cell-based or functional assay

Sequence of Estrogen Receptor α (ER) (P03372 whole entry): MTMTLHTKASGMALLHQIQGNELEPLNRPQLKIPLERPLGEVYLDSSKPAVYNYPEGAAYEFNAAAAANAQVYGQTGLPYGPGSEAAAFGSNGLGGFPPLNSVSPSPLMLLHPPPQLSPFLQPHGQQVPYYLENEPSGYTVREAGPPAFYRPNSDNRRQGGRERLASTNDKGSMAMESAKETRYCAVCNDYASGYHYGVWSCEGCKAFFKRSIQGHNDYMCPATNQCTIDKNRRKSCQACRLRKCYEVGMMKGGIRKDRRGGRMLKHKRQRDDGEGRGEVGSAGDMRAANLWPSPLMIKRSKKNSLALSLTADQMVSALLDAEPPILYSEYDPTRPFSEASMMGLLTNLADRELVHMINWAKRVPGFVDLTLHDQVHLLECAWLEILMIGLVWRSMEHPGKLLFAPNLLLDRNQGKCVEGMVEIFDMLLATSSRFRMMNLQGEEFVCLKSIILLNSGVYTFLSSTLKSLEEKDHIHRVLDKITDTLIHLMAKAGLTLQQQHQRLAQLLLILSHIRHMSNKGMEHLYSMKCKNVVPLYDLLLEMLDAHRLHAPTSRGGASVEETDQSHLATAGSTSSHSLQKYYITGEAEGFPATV

MTA1s-del (from UniProt Q13330 1-397)
presence of ERα in the nucleus of estradiol stimulated MCF-7 cells: > 90%
